In publication PMC12990809:

Experiments:
Assay in all cases: pulldown
Conditions in all cases: 20 nM protein, 1.5 uM RNA pool; 20 mM HEPES pH 7.8, 70 mM KCl, 10 mM NaCl, 10% glycerol, 2 mM DTT, 0.1 ug/uL BSA; 30 min, 4 C
[1] = target: PGTG_09691 (Puccinia graminis) (UniProt E3KI53)
[2] = target: T1, grld-1 (Caenorhabditis elegans) (UniProt H2KYB8)
T1 sequence: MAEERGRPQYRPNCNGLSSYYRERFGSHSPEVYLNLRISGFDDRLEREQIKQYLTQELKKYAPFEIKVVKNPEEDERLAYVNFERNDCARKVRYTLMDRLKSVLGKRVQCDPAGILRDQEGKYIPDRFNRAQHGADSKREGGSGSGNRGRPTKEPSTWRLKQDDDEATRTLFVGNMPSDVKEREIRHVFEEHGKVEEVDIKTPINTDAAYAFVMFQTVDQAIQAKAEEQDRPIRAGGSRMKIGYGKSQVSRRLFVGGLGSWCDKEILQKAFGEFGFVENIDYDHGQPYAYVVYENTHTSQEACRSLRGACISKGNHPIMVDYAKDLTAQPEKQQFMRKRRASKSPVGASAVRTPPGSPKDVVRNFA

[3] = target: T2, Smp_006320 (Schistosoma mansoni) (UniProt G4VQQ6)
T2 sequence: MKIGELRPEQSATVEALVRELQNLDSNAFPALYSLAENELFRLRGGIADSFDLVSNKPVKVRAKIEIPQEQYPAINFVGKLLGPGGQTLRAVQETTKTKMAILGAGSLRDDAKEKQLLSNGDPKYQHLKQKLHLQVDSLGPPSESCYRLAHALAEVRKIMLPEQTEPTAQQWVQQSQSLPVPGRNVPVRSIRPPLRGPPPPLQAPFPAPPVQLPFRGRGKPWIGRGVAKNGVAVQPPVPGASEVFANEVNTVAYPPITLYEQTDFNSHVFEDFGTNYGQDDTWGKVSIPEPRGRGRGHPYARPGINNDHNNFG

PRR3 (Homo sapiens) = target: T3, PRR3 (Homo sapiens) (UniProt P79522)
T3 sequence: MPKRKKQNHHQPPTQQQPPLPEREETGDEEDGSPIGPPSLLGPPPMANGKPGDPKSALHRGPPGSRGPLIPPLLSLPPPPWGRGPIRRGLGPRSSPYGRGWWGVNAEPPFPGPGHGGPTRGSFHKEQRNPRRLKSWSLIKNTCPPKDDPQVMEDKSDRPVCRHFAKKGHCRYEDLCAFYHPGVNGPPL

[4] = target: T4, PF14_0151 (Plasmodium falciparum) (UniProt Q8ILU3)
T4 sequence: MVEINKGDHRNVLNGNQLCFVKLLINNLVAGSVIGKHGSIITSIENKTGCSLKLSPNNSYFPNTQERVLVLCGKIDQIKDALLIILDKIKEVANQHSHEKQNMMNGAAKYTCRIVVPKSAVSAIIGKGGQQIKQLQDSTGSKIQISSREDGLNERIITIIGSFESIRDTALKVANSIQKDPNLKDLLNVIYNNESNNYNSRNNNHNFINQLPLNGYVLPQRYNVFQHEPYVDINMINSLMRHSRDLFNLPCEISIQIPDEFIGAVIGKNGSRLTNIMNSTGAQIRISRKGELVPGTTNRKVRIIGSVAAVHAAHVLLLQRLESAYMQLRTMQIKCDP

[5] = target: T5, snrpB2 (Dictyostelium discoideum) (UniProt Q54J05)
T5 sequence: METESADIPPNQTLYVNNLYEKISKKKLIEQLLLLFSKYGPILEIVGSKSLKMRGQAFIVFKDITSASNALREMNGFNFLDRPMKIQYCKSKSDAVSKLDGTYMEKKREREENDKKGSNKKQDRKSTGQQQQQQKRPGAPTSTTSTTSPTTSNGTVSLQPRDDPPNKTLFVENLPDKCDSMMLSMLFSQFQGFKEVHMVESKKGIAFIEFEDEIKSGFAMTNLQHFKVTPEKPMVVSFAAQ

[6] = target: pabpc4 (Xenopus tropicalis) (UniProt A0A8J0QFT8)
[7] = target: T6, pabpc1A (Dictyostelium discoideum) (UniProt Q54BM2)
T6 sequence: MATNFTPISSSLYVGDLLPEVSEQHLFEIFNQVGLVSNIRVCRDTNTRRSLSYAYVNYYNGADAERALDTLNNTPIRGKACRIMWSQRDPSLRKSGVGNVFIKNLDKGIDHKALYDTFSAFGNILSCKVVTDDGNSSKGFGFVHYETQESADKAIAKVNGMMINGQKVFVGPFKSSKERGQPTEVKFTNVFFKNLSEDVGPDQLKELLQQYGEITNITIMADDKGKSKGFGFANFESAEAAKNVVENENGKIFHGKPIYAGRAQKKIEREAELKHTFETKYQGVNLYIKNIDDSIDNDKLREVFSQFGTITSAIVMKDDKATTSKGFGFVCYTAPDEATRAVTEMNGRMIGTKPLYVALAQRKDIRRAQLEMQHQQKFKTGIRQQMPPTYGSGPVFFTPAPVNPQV

[8] = target: T7, CG15440 (Drosophila melanogaster) (UniProt Q7KU43)
T7 sequence: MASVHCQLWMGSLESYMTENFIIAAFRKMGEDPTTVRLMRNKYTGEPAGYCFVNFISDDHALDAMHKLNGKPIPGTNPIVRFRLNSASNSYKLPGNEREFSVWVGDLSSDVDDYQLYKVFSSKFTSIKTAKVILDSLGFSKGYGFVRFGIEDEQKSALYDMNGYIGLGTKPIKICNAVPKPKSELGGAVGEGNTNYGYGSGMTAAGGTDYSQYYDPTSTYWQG

Chain of pabpc4 (Xenopus tropicalis) (A0A8J0QFT8 entry or part of it): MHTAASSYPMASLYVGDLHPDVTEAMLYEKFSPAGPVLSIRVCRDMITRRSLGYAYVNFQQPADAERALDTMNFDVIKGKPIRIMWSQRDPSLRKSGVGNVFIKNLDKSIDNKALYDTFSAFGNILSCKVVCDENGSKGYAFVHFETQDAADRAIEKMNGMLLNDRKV

**Q.** Which binding signal (z-score (mean of top ten 7-mers)) [1] does the source give for UUGCAC [RNAcompete motif RNCMPT00482] here?
**A.** Its binding signal (z-score (mean of top ten 7-mers)) is 11.4.

**Q.** Which binding signal (z-score (mean of top ten 7-mers)) [2] does the source give for ACUACUA [RNAcompete motif RNCMPT00509] here?
**A.** The binding signal (z-score (mean of top ten 7-mers)) was 8.74.

**Q.** For AUAAAUA [RNAcompete motif RNCMPT00500], which binding signal (z-score (mean of top ten 7-mers)) [3] is on record?
**A.** Its binding signal (z-score (mean of top ten 7-mers)) is 8.79.

**Q.** How did the binding signal (z-score (mean of top ten 7-mers)) (PRR3 (Homo sapiens)) turn out when AUAAGC [RNAcompete motif RNCMPT00628] was run?
**A.** Its binding signal (z-score (mean of top ten 7-mers)) is 15.2.

**Q.** AUACANA [RNAcompete motif RNCMPT00505] was tested. Which binding signal (z-score (mean of top ten 7-mers)) [4] did it give?
**A.** The binding signal (z-score (mean of top ten 7-mers)) was 8.57.

**Q.** With AGCAC [RNAcompete motif RNCMPT00507] as the substance, how does the binding signal (z-score (mean of top ten 7-mers)) [5] read?
**A.** Its binding signal (z-score (mean of top ten 7-mers)) is 12.9.

**Q.** AAAAAAG [RNAcompete motif RNCMPT00511] was tested. Which binding signal (z-score (mean of top ten 7-mers)) [6] did it give?
**A.** The binding signal (z-score (mean of top ten 7-mers)) was 13.4.

**Q.** For AAAAAAA [RNAcompete motif RNCMPT00508], which binding signal (z-score (mean of top ten 7-mers)) [7] is on record?
**A.** The binding signal (z-score (mean of top ten 7-mers)) was 14.8.

**Q.** With GAUAUU [RNAcompete motif RNCMPT00513] as the substance, how does the binding signal (z-score (mean of top ten 7-mers)) [8] read?
**A.** Its binding signal (z-score (mean of top ten 7-mers)) is 13.9.
